For orientation: EC50 means the concentration needed to bring the measured effect to its halfway point. What is called IC50 is the concentration that gives 50% inhibition. High values mean lower potency, low ones higher potency. For orientation: Kd means a measure of binding affinity in units of concentration. As a reminder, the koff is the first-order rate constant of dissociation. Read a high koff as fast dissociation. Broadly, the kon is the rate constant with which the complex forms. Lower therefore signals slow association.

Assay [1] deals with T1, His-tagged ILT4 protein extracellular domain: ILT4-His (human, UniProt Q8N423 22-460).
T1 construct: Expressed in 293 cells; also called human ILT4-His protein
T1 sequence (Q8N423 other isoform, or with tags, fused parts or gaps limits assumed): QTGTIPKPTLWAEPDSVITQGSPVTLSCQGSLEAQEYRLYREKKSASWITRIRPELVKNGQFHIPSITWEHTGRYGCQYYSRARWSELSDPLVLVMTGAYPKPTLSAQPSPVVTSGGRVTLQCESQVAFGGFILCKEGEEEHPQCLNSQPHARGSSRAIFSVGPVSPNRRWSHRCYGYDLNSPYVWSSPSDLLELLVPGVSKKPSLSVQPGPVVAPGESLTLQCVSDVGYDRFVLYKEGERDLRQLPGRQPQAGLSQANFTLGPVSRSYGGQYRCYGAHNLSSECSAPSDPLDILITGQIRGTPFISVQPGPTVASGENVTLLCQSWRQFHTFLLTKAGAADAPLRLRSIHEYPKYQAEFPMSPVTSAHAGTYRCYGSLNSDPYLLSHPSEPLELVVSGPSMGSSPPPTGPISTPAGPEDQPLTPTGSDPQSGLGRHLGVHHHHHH
Description: ELISA, coated ILT4-His 1 µg/mL; Assay 4. (In an ELISA, binding on a coated surface is turned into a signal by an enzyme label.)

The target of assay [2] is T1, His-tagged ILT4 protein extracellular …. Kind of assay: ELISA, coated ILT4-His 1 µg/mL; Assay 1.
Assay [3] has the same target. Description: ELISA, coated ILT4-His 1 µg/mL; Assay 2.
For assay [4] the target is unchanged. Kind of assay: ELISA, coated ILT4-His 1 µg/mL; Assay 3.
Assay [5] shares this target. Description: ELISA, coated ILT4-His 1 µg/mL; Assay 5.
Assay [6] deals with T2, full-length human ILT4 protein overexpressed on cells (human, UniProt Q8N423 22-597).
T2 construct: also called CHO-S/ILT4; ILT4 stably transfected cell strain
T2 sequence (Q8N423 other isoform, or with tags, fused parts or gaps limits assumed): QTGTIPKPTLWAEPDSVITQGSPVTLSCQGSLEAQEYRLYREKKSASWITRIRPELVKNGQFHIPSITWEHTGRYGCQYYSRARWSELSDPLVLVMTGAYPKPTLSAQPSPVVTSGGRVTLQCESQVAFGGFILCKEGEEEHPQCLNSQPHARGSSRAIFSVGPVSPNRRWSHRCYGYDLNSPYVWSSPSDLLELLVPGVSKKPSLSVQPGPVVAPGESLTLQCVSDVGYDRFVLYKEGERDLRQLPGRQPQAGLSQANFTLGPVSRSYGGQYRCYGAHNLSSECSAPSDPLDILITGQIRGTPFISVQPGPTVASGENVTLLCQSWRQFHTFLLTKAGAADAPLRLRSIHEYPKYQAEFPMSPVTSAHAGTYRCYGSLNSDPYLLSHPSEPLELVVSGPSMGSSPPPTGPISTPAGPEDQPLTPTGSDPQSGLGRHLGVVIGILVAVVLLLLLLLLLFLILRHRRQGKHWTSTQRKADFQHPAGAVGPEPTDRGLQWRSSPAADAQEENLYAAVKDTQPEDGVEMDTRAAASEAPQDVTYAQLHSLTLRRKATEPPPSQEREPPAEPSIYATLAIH
Description: flow cytometry competition on CHO-S/ILT4 cells; competitor CF647-labelled HLA-G tetramer; Assay 1. For orientation: Flow cytometry measures light scatter and fluorescence of single cells or particles in a stream.

Assay [7] addresses T2, full-length human ILT4 protein …. Description: flow cytometry competition on CHO-S/ILT4 cells; competitor CF647-labelled HLA-G tetramer; Assay 2.
Assay [8] has the same target. Kind of assay: flow cytometry competition on CHO-S/ILT4 cells; competitor CF647-labelled HLA-G tetramer; Assay 3.
Assay [9] shares this target. Description: flow cytometry competition on CHO-S/ILT4 cells; competitor CF647-labelled HLA-G tetramer; Assay 4.
Assay [10] addresses T3, LILRA5-His (Acro, LI5-H82E1) (human, UniProt A6NI73 42-268).
T3 construct: Bought protein. 'Human' stands at the head of the list of coated proteins; not shown: His tag
Description: ELISA, coated protein 1 µg/mL.

For assay [11], the target named is T4, LILRA6-His (Acro, LI6-H82E2) (human, UniProt Q6PI73 24-447).
T4 construct: Bought protein. 'Human' stands at the head of the list of coated proteins; not shown: His tag
T4 sequence (Q6PI73 24-447 limits assumed): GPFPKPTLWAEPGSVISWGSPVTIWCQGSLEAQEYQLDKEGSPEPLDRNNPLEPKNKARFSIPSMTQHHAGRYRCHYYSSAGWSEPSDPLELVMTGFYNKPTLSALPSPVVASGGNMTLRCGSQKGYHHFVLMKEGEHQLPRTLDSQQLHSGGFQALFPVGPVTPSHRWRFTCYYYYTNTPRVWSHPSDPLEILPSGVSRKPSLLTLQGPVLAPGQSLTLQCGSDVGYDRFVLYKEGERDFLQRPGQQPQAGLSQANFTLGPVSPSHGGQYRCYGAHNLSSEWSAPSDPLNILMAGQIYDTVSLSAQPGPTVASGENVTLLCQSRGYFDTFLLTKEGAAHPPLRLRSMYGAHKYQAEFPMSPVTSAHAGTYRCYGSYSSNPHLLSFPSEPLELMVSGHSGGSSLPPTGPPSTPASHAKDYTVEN
Kind of assay: ELISA, coated protein 1 µg/mL.

Assay [12] addresses T5, His-tagged ILT2 protein extracellular domain: ILT2-His (human, UniProt Q8NHL6 24-461).
T5 construct: The entry is the whole construct, with the His tag; also called human ILT2 protein
Description: ELISA, coated protein 1 µg/mL.

Assay [13] addresses T6, His-tagged ILT3 protein extracellular domain: ILT3-His (human, UniProt Q8NHJ6 22-259).
T6 construct: The entry is the whole construct, with the His tag
Description: ELISA, coated protein 1 µg/mL.

Assay [14] concerns the target T7, LILRB5-His (Acro, CDC-H5220) (human, UniProt O75023 24-458, limits assumed).
T7 construct: Bought protein. 'Human' stands at the head of the list of coated proteins; not shown: His tag
Description: ELISA, coated protein 1 µg/mL.

The target of assay [15] is T8, LILRA1-His (Acro, LI1-H82E8) (human, UniProt O75019 17-461).
T8 construct: Bought protein. 'Human' stands at the head of the list of coated proteins; not shown: His tag
T8 sequence (O75019 17-461 limits assumed): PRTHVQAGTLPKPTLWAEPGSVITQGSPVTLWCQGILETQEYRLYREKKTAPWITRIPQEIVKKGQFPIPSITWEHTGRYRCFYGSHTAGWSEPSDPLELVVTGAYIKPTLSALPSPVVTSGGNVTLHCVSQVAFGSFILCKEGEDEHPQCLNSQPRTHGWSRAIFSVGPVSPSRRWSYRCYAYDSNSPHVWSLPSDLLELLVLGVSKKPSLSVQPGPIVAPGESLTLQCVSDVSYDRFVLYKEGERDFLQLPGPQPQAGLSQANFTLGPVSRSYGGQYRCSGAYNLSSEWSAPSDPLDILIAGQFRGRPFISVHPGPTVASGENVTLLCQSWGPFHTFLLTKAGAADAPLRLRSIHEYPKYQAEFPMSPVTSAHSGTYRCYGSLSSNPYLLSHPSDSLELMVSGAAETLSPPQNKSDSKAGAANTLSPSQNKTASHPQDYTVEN
Description: ELISA, coated protein 1 µg/mL.

Assay [16] deals with T9, LILRA2-His (Acro, LI2-H82E9) (human, UniProt Q8N149 24-449).
T9 construct: Bought protein. 'Human' stands at the head of the list of coated proteins; not shown: His tag
T9 sequence (Q8N149 24-449 limits assumed): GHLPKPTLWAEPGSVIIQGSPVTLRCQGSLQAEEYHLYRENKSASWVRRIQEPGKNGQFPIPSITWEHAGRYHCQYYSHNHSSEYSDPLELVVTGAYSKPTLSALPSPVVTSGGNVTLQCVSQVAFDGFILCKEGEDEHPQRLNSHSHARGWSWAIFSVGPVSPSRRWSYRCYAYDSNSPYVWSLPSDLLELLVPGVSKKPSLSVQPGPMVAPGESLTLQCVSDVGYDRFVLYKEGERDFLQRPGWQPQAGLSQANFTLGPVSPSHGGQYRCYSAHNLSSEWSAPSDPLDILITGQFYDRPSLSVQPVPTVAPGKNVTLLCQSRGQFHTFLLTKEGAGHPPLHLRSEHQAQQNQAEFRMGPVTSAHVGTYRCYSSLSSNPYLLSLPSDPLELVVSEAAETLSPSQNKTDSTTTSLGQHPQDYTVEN
Kind of assay: ELISA, coated protein 1 µg/mL.

The target of assay [17] is T10, LILRA3-His (Acro, LI3-H82E0) (human, UniProt Q8N6C8 24-439).
T10 construct: Bought protein. 'Human' stands at the head of the list of coated proteins; not shown: His tag
T10 sequence (Q8N6C8 24-439 limits assumed): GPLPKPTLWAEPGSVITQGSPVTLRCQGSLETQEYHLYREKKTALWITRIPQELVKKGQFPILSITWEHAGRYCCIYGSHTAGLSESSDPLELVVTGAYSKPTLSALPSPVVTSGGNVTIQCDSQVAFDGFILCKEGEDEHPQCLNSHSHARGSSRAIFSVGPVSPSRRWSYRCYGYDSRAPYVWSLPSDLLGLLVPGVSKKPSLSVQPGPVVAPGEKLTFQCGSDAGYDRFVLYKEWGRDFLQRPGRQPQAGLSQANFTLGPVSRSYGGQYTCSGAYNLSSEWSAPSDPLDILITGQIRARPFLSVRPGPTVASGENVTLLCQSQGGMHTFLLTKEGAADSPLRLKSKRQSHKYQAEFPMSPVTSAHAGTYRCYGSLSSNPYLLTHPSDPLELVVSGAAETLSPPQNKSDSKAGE
Kind of assay: ELISA, coated protein 1 µg/mL.

The target in assay [18] is T11, LILRA4-His (SinoBiological, 16058-H08H) (human, UniProt P59901 24-446).
T11 construct: Bought protein. 'Human' stands at the head of the list of coated proteins; not shown: His tag
T11 sequence (P59901 24-446 limits assumed): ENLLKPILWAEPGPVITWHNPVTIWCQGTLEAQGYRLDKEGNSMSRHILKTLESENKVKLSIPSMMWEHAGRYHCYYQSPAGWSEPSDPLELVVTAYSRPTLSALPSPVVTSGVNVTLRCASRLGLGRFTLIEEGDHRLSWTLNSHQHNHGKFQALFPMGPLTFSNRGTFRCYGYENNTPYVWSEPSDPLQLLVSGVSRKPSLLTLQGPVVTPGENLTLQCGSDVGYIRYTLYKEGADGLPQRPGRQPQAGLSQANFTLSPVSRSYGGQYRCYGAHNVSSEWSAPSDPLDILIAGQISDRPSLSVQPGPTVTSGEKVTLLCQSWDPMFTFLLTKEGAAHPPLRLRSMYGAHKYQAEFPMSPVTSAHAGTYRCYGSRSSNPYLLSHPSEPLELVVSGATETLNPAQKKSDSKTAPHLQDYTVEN
Description: ELISA, coated protein 1 µg/mL.

Assay [19] addresses T1, His-tagged ILT4 protein extracellular …. Description: ELISA, coated protein 1 µg/mL, antibody 10 µg/mL.
In assay [20] the target is T3, LILRA5-His (Acro, LI5-H82E1). Kind of assay: ELISA, coated protein 1 µg/mL, antibody 10 µg/mL.
Assay [21] concerns the target T4, LILRA6-His (Acro, LI6-H82E2). Kind of assay: ELISA, coated protein 1 µg/mL, antibody 10 µg/mL.
Assay [22] has as its target T5, His-tagged ILT2 protein extracellular …. Description: ELISA, coated protein 1 µg/mL, antibody 10 µg/mL.
The target of assay [23] is T6, His-tagged ILT3 protein extracellular …. Kind of assay: ELISA, coated protein 1 µg/mL, antibody 10 µg/mL.
In assay [24] the target is T7, LILRB5-His (Acro, CDC-H5220). Description: ELISA, coated protein 1 µg/mL, antibody 10 µg/mL.
The target of assay [25] is T8, LILRA1-His (Acro, LI1-H82E8). Description: ELISA, coated protein 1 µg/mL, antibody 10 µg/mL.
Assay [26] has as its target T9, LILRA2-His (Acro, LI2-H82E9). Description: ELISA, coated protein 1 µg/mL, antibody 10 µg/mL.
For assay [27], the target named is T10, LILRA3-His (Acro, LI3-H82E0). Kind of assay: ELISA, coated protein 1 µg/mL, antibody 10 µg/mL.
The target in assay [28] is T11, LILRA4-His (SinoBiological, 16058-H08H). Kind of assay: ELISA, coated protein 1 µg/mL, antibody 10 µg/mL.
In assay [29] the target is T1, His-tagged ILT4 protein extracellular …. Description: SPR (Biacore), antibody captured on Protein A chip, ILT4-His as analyte, 1:1 model.
The target of assay [30] is T2, full-length human ILT4 protein …. Kind of assay: flow cytometry (FACS) on CHO-S/ILT4 cells; Assay 1.

T5 sequence (Q8NHL6 other isoform, or with tags, fused parts or gaps): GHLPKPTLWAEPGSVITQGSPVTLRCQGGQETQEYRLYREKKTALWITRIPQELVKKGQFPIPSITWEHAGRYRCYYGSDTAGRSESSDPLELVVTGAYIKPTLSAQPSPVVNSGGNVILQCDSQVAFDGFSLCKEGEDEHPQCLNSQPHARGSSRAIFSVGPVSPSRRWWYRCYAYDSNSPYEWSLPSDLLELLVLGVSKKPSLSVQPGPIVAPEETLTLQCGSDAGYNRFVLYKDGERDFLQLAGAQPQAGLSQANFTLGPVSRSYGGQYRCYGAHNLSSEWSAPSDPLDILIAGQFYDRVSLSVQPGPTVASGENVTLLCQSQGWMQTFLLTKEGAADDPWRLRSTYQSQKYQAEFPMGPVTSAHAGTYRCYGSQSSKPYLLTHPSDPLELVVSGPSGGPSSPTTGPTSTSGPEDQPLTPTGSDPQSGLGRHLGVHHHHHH
T7 sequence (O75023 24-458 limits assumed): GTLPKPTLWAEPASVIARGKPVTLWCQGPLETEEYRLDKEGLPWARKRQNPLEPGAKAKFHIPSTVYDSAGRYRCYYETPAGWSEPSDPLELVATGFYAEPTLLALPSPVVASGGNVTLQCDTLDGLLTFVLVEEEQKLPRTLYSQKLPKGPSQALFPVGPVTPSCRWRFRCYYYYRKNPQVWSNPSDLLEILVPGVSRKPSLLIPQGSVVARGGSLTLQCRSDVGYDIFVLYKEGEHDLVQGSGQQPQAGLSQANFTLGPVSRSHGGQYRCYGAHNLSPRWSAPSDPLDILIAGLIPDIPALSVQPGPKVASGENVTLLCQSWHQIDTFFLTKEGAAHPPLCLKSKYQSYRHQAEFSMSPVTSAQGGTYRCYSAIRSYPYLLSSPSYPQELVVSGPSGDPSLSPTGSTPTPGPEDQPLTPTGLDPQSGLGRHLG
T3 sequence (A6NI73 42-268 limits assumed): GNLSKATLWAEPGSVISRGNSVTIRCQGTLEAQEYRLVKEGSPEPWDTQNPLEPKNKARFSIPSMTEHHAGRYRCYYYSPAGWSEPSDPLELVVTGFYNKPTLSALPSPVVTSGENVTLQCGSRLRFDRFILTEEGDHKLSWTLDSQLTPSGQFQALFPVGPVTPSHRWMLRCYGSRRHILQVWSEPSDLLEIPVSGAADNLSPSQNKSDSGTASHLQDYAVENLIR

B1: chimeric antibody ChP1-E11 (antibody, human IgG4 S228P, kappa, F234A L235A, V domains shown)
VH: EVQLQQSGPELVKPGASVKMSCQASGYTFTDYSIHWVKQSRGASLEWIGYINPNNGVTNYNQKFKGKATLTVNKSSSTAYMELRSLTSEDSAVYYCAREGDSVTTIVVHWYFDVGGTGTTVTVSS
VL: DIQMTQSPASLSVSLGETVTITCRASENIYSNLVWYQQKQGKFPQLLVYAAINLVDGVPSRFSGSGSGTQYSLKINSLQSEDFGSYYCQQFWDTPLTFGAGTKLEIKR
notes: Murine variable regions with hIgG4(LALA) and CL constant regions; also called M P1-E11
With B1, in assay [1], the EC50 was 0.041 µg/mL.

B2: positive control antibody JTX (sequences from WO2019126514A2) (antibody, human IgG4 S228P, kappa, V domains shown)
VH: QITLKESGPTLVKPTQTLTLTCTFSGFSLNTYAMGVSWIRQPPGKALEWLASIWWNGNKYNNPSLKSRLTVTKDTSKNQVVLTMTNMDPVDTATYYCAHSRIIRFTDYVMDAWGQGTLVTVSS
VL: DIQMTQSPSSLSTSVGDRVTITCRASEDIYNDLAWYQQKPGKAPKLLIYNANSLHTGVASRFSGSGSGTDFTFTISSLQPEDVATYFCQQYYDYPLTFGQGTKLEIKR
notes: also called JTX-8064
Consider B2, for which the EC50 in [2] worked out at 0.0826 µg/mL; in assay [3], 0.0826 µg/mL; in assay [4], 0.0293 µg/mL; in assay [1], 0.083 µg/mL; in [5], 0.0801 µg/mL. Besides, the results for the Top in assay [3] and in assay [5] were 1.7 absorbance at 450 nm and 1.14 absorbance at 450 nm, respectively. The concentration for half-maximal inhibition (IC50) in [6] worked out at 0.022 µg/mL; in [7] it was 0.12 µg/mL; in [8] it was 0.12 µg/mL; in [9], 0.061 µg/mL.

B3: chimeric antibody ChP1-D7 (antibody, human IgG4 S228P, kappa, F234A L235A, V domains shown)
VH: QIQLVQSGPDLKKPGETVKISCKASGYTFTTYGMNWVKQAPGKALKWMGWINTYSGVPTYADDFKGRFAFSLETSATTAYLQINNLKNEDTATYFCARRTDYDGYVMDCWGQGTSVTVSS
VL: DIVMSQSPSSLAVSIGEKVTMSCKSSQSLFYSGNQKNYLAWYLQKPGQSPKLLLYWASTRESGVPDRFTGSGSGTDFTLTISSVMAEDLAVYYCQQYFSYPPTFGGGTKLEIKR
notes: Murine variable regions with hIgG4(LALA) and CL constant regions; also called M P1-D7
As to B3, in [4], a half-maximal response (EC50) required 0.0292 µg/mL.

B4: fully human-derived antibody P2m (antibody, human IgG1, kappa, L234A L235A, V domains shown)
VH: QVQLVQSGAEVKKPGSSVKVSCKASGYTFTSYDISWVRQAPGQGLEWMGGIIPIFGTANYAQKFQGRVTITADESTSTAYMELSSLRSEDTAVYYCTAGIFLATAYWGQGTLVTVSS
VL: DIQMTQSPSSMSASVGDRVTISCQASQDIQNYLNWYQQRPGQAPKLLIYDASTLETGVPSRFSGSGSGTYFTLTISSLQPEDVATYYCQQYENVPITFGQGTRLEIKR
notes: Full chains
Regarding B4, the binding result in [10], in [11], in assay [12], in assay [13], in assay [14] and in assay [15] was “no binding (tested: 10 µg/mL)” in each case. The binding result in [16], in assay [17] and in assay [18] was “no binding (tested: 10 µg/mL)” throughout. Moreover, the “absorbance at 450 nm” value is 1.87 absorbance at 450 nm in assay [19]; 0.0459 absorbance at 450 nm in assay [20]; 0.0453 absorbance at 450 nm in assay [21]; 0.0517 absorbance at 450 nm in [22]; 0.0671 absorbance at 450 nm in assay [23]; 0.0663 absorbance at 450 nm in assay [24]. The “absorbance at 450 nm” value stood at 0.0469 absorbance at 450 nm in assay [25], 0.0448 absorbance at 450 nm in assay [26], 0.0468 absorbance at 450 nm in assay [27] and 0.0543 absorbance at 450 nm in [28]. The molecule also showed a Kd in [29] of 0.0433 nM. Moreover, the off-rate constant (koff) in assay [29] was found to be 8.78e-05 s⁻¹. This molecule also came in with an on-rate constant (kon) in assay [29] of 2.03e+06 M⁻¹ s⁻¹. In assay [9], this molecule came in with an IC50 of 0.033 µg/mL.

B5: humanized antibody huP2-E3 (antibody, human IgG4 S228P, kappa, F234A L235A, V domains shown)
VH: EVQLVQSGAEVKKPGASVKVSCKASGYTFTDYYMNWVKQAPGQRLEWMGDINPNSGGTSYNQKFKGRVTITVDKSGSTAYMELSSLRSEDTAVYYCARGGVTTVVATYWYFDVWGQGTTVTVSS
VL: DIQMTQSPSSLSASVGDRVTITCRASENIYSNLAWYQQKPGKSPKLLVYAATNVADGVPSRFSGSGSGTDYTLTISSLQPEDFATYYCQQFWDTPFTFGQGTKLEIKR
notes: Full chains; The constant region is hIgG1(LALA) or hIgG4(LALA) with a kappa CL; also called P2-E3H6L2
Turning to B5, the binding result in assay [10], in assay [11], in assay [12], in assay [13], in [14] and in assay [15] was “no binding (tested: 10 µg/mL)” each time. The binding result in [16], in assay [17] and in assay [18] was “no binding (tested: 10 µg/mL)” throughout. In addition, the “absorbance at 450 nm” value in assay [19] was found to be 1.04 absorbance at 450 nm; in assay [20] it was 0.0466 absorbance at 450 nm; in [21], 0.047 absorbance at 450 nm; in assay [22], 0.0541 absorbance at 450 nm; in assay [23], 0.0699 absorbance at 450 nm; in assay [24] it was 0.0523 absorbance at 450 nm. Moreover, the “absorbance at 450 nm” value is 0.0532 absorbance at 450 nm in assay [25], 0.055 absorbance at 450 nm in assay [26], 0.0476 absorbance at 450 nm in assay [27] and 0.0605 absorbance at 450 nm in [28]. Besides, in assay [30], the EC50 was found to be 0.0307 µg/mL. The molecule further returned a Kd in assay [29] of 1.26 nM. Besides, the off-rate (koff) in assay [29] was found to be 0.00127 s⁻¹. Besides, in assay [29], the kon was found to be 1.01e+06 M⁻¹ s⁻¹. This molecule also gave an IC50 in assay [6] of 0.012 µg/mL.

B6: chimeric antibody ChP1-C4 (antibody, human IgG4 S228P, kappa, F234A L235A, V domains shown)
VH: QVQLKQSGAELVRPGASVKLSCKASGYSFTDYYINWVKQRPGQGLEWIARIYPGNDNTYYNEKFKDKATLTADSSSSTAYMQLSSLTSEDSAVYFCTRSQDGYYEENAMDYWGQGTSVTVSS
VL: DIQMTQSPASLSVSVGETVTITCRASENIYSNLAWYQQRQGKSPQLLVYAATNLADGVPFRFSGSGSGTQYSLKINSLQSEDFGSYYCQQFWGSPHTFGGGTKLEIKR
notes: Murine variable regions with hIgG4(LALA) and CL constant regions; also called M P1-C4
For B6, in [2], the EC50 came to 0.0643 µg/mL.
